# Experimental data published in PMC10631681, “The structural basis of mRNA recognition and binding by yeast pseudouridine synthase PUS1”.
# Numbering of substitutions follows the chain as printed.
# T1: PUS1 D134A (tagless, crystal) (Saccharomyces cerevisiae, UniProt Q12211 1-544, D134A)
# T1 sequence: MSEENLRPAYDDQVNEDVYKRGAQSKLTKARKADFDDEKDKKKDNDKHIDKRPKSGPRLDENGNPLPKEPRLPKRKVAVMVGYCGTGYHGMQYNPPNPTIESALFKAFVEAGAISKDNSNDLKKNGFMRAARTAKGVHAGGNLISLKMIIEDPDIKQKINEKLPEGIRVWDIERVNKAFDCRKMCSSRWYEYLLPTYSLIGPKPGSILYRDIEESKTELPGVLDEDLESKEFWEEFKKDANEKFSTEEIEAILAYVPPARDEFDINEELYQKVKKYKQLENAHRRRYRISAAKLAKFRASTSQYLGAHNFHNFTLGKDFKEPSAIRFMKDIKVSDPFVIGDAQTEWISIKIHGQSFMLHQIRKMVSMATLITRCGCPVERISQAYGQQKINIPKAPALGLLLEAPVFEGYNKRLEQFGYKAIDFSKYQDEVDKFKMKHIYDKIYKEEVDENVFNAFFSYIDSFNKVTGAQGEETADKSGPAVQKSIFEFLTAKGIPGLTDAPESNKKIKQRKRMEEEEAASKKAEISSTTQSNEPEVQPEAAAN
# T2: PUS1 wild type (tagless, crystal) (Saccharomyces cerevisiae, UniProt Q12211 1-544)
# T2 sequence: T1 sequence with A134D
# T3: PUS1 D134A (His-tagged) (Saccharomyces cerevisiae, UniProt Q12211 1-544, D134A)
# T3 sequence: T1 sequence
# T4: PUS1 wild type (His-tagged) (Saccharomyces cerevisiae, UniProt Q12211 1-544)
# T4 sequence: T1 sequence with A134D
# B1: R263 duplex (crystal) (dsRNA)
# RNA 1: AAAUCGGGAUUCCGGAUA
# RNA 2: AAAUCGGGAUUCCGGAUA
# B2: R340 duplex (crystal) (dsRNA)
# RNA 1: UAAUCGGGAUUCCGGAUA
# RNA 2: UAAUCGGGAUUCCGGAUA
# modifications: 5-fluorouracil at position 1 (written as U)
# How the values were obtained:
# [1] = target: T1, PUS1 D134A (tagless, crystal); assay: X-ray crystallography (2.4 A); sulfate ion near RNA 5' end; EMSA: 100 nM R263 with 100 nM-1 uM PUS1 in 100 ul under PUS1 activity assay conditions (buffer not in the material), 90 min, SYBR Gold stain; crystals: 7R9G 0.05 M ammonium sulfate, 0.05 M Bis-Tris pH 6.0, 26% pentaerythritol ethoxylate, 4 C; 7R9F 0.2 M K/Na tartrate, 18% PEG 3350, 25 C; conditions: protein: recombinant; tags: none; chain copies: 2; self-duplex of 2 copies; positions 2-10 paired with non-Watson-Crick pairs (two central G:G reverse Hoogsteen); 3' ends disordered
# [2] = target: T2, PUS1 wild type (tagless, crystal); assay: X-ray crystallography (2.9 A); EMSA: 100 nM R263 with 100 nM-1 uM PUS1 in 100 ul under PUS1 activity assay conditions (buffer not in the material), 90 min, SYBR Gold stain; crystals: 7R9G 0.05 M ammonium sulfate, 0.05 M Bis-Tris pH 6.0, 26% pentaerythritol ethoxylate, 4 C; 7R9F 0.2 M K/Na tartrate, 18% PEG 3350, 25 C; conditions: protein: recombinant; tags: none; chain copies: 2; self-duplex of 2 copies, same duplex as R263
# PUS1 D134A (His-tagged) = target: T3, PUS1 D134A (His-tagged); assay: EMSA; 100 nM RNA, increasing protein; EMSA: 100 nM R263 with 100 nM-1 uM PUS1 in 100 ul under PUS1 activity assay conditions (buffer not in the material), 90 min, SYBR Gold stain; crystals: 7R9G 0.05 M ammonium sulfate, 0.05 M Bis-Tris pH 6.0, 26% pentaerythritol ethoxylate, 4 C; 7R9F 0.2 M K/Na tartrate, 18% PEG 3350, 25 C; conditions: protein: recombinant; tags: N-terminal 6xHis; predicted short stem-loop; strand state in EMSA not determined
# [3] = target: T4, PUS1 wild type (His-tagged); assay: as above; conditions: protein: recombinant; tags: N-terminal 6xHis; predicted short stem-loop; strand state in EMSA not determined
binder,measurement,setting,value
B1,binding result,[1],binds
B2,binding result,[2],binds
AAAUCGGGAUUCCGGAUA (ssRNA) [R263 (EMSA)],binding result,PUS1 D134A (His-tagged),binds
same,binding result,[3],binds
